B1: TPR t1 (parent)
chain: GACCAAUCUGCCCUCAGAGCUCGAGAACAUCUUCGGAUGCAGAGGAGGCAGGCUUCGGUGGCGCGAUAGCGCCAACGUCCUCAACCUCCAAUGCAUCCCACCACAUGAUGAUGCCUGAAGAGCCUUGGUUUUUUG

The variants in the data set derive from B1. Kind of data set: polymerase ribozyme fitness, log enrichment relative to wild type (log ratio); higher = more active; in vitro selection for triplet polymerase activity. The method in brief: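 Mutant libraries were PCR-built and transcribed for each subunit of a heterodimeric triplet polymerase ribozyme and selected for one round in triplicate at −7 °C, frozen, before gel excision of extended constructs and streptavidin-bead capture. Input and output libraries were Illumina-sequenced, keeping genotypes with ≥10 input reads and ≥1 read per output. Fitness is a logarithmic ratio of genotype to wild-type enrichment, in base 2, using inverse-variance-weighted replicate averages.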
Consider G36U G61A G117U, for which the “polymerase ribozyme fitness (log ratio)” value is -5.19.
For A37U G48A C97U G110U U125C the value was -6.59; for G36C G61U C70G C80U U81A C88U C104A C114G, -6.29.
For A37U C56G U87G the value was -1.26; for C34U G36U G61A C97G A119G, -3.91; for A37U G71A, -1.12.
Next, A37U G44A G52U C79A G113U G120U: -5.01.
For the variant A37C G48C U54C G113A, the “polymerase ribozyme fitness (log ratio)” value was -2.76.
For G36C A66G C72U the value was -3.78.
Next, G36C U78C A95C: -2.98.
As for G36U C40U G51U A68G C72U A111U A119C G120A, the “polymerase ribozyme fitness (log ratio)” value is -8.09.
For G35A C62A the value was -5.05; for G35A C62U, -4.22.
Next, A37G U81G A84C: -5.14; A37C U55G C76U A105U: -2.68; C34G U125A: -5.11.
As to G36U G48A, the “polymerase ribozyme fitness (log ratio)” value was -1.52.
For G36U G48U the value was -2.23; for G36U C104U, -1.41.
Next, G36A G44A C73G C79U U116G: -5.21.
In the case of A37U G60A G93C U112C C115G G122U U130A, the “polymerase ribozyme fitness (log ratio)” value was -6.13.
Next, C34U U133A: -4.62.
Regarding G36C U54G C73A, the “polymerase ribozyme fitness (log ratio)” value is -2.09.
Next, G36A G110U A121U: -2.05.
Turning to A37U C72U A83G C86U, the “polymerase ribozyme fitness (log ratio)” value was 0.0963.
Next, C34U G69U: -0.765; G35A C64A C114G U125G: -7.35.
Consider A37U C70A, for which the “polymerase ribozyme fitness (log ratio)” value was -1.11.
For the variant G35C U129G, the “polymerase ribozyme fitness (log ratio)” value is -6.04.
Next, G36C G47A G110A G127U: -2.57; A37C A68G: -2.51; G35C U87A: -5.04.
Next, G36A A46U G47C C56U U106A: -3.75; G36U C40U A121U G122C: -0.484; A37U C70G C97U G117U: -5.65.
For the variant C34U C56A, the “polymerase ribozyme fitness (log ratio)” value was -5.06.
Next, G36A C72G U92A: -5.43; A37U G52U: -1.37.
Next, G35A C53U G57U G69A A83U C115U: -6.36; G35A C73G C80A A121G: -6.83.
Next, A37U G63C A95C: -1.93; G36A G57A G60U U131G: -0.901.
In the case of G36U A46G, the “polymerase ribozyme fitness (log ratio)” value is -0.974.
For A37U C53G U116A the value was -3.56; for A37C G61U U109A, -5.9.
Regarding G36U G48U U78A, the “polymerase ribozyme fitness (log ratio)” value was -2.21.
Next, A37U A74C C102A C104U: -2.41; A37U A43G G60A: -2.78; G36U C40A U81A G120C G122A: -4.24.
Next, A37C U54G G57A: -1.35; G36U G120U: 0.153.
Regarding G36U G120C, the “polymerase ribozyme fitness (log ratio)” value was determined as 0.124.
Consider G35A G69C, for which the “polymerase ribozyme fitness (log ratio)” value was -4.88.
Next, G35A C101U C115A: -3.56; A37U G120C: -0.129.
Next, G35A C86G: -5.03; G36U G58C G71C A91U G120U: -4.22.
Next, G36U C99U C124A: -3.03.
With A37U G48U G60A C82G A121U, the “polymerase ribozyme fitness (log ratio)” value came to 1.39.
Consider G36A G45C G58C C64G G117U, for which the “polymerase ribozyme fitness (log ratio)” value was -6.11.
For A37U G44A A83C G120C U130G the value was -1.38; for G36C G61U C114A, -2.77; for A37C C49A G69U G77C C85A, -3.32.
For G36A C85G U131C the value was -2.08.
Next, G35A U87A: -3.5.
Regarding G35A C73A, the “polymerase ribozyme fitness (log ratio)” value is -3.7.
Next, G36U A103G: -4.73; G36C C49G C70U: -2.37.
For G35A G48C C123G the value was -2.75.
For G36C C53A C115U U116G the value was -4.36; for G36U A46C A50U A84U, -5.6; for A37U G69C, -1.75.
In the case of C34U U116C, the “polymerase ribozyme fitness (log ratio)” value was -5.7.
Next, G36A C89U C94G C114U: -5.66; A37G C115U: -0.85; A37U C56G: -1.11.
Take C34U C97U: the “polymerase ribozyme fitness (log ratio)” value was -4.85.
Next, G36C C53G C56A A95U: -2.45.
Next, C34U A41G C53U G69U: -2.44; G35U G39A: -5.13; A37U G57A C89G: -3.91.
For C34G G61U C64U C99A G120A A121G the value was -5.39; for A37U C53U G58C A66U C76G U106C, -2.44.
As to G35C C86A C101U U109C C124G, the “polymerase ribozyme fitness (log ratio)” value is -7.22.
Next, G35A C88U C99A: -5.74.
Turning to G36C G63U C98U, the “polymerase ribozyme fitness (log ratio)” value was -3.08.
Next, G35C G93A: -4.92; A37U C82G: -0.955; A37G G47C C64U U87A G120C C124G: -3.3.
As for A37U G47U C73U C101G C114U U126G, the “polymerase ribozyme fitness (log ratio)” value was -7.11.
Consider C34U C88G, for which the “polymerase ribozyme fitness (log ratio)” value was -3.99.
Next, G35A C88U C102A: -5.27; G36C G51C C70U U87A C94U C123U: -5.76; G35A C72U: -4.58.
Next, G35A C72G: -2.69.
For G36U G71A G120C C123G the value was -1; for G35A C85G U106G G120C, -4.02; for A37C A41G C53A C88U, -0.41.
On to G35A G47A G57U, for which the “polymerase ribozyme fitness (log ratio)” value was -3.97.
With G36C A50C G71A A118U G120A, the “polymerase ribozyme fitness (log ratio)” value is -1.49.
In the case of G36C A50U, the “polymerase ribozyme fitness (log ratio)” value was -1.67.
In the case of A37G A121G, the “polymerase ribozyme fitness (log ratio)” value was determined as 2.3.
For A37G U78A C82G A119U the value was -0.542; for G35U C73G, -5.75.
For G36C U55G the value was -1.03; for A37C G45A A83C A100U G113C, -4.29.
Next, A37G C76G C80G: -6.38.
In the case of G35C C72U C99A C102U U116C U130G, the “polymerase ribozyme fitness (log ratio)” value is -6.33.
Next, G36U U78G C97A: -0.315.
A37G C53G G69A G110U U132C: the “polymerase ribozyme fitness (log ratio)” value was -6.38.
For G36A C70U C76A C85U the value was -3.99.
Next, A37U G69C C89U: -2.29; G35U G63U: -6.36.
G36A C82U C123G: the “polymerase ribozyme fitness (log ratio)” value was found to be 0.9.
For C34U C86A C114U the value was -5.07.
Next, G35U C115A G120C: -5.77; A37G G39C: -2.69.
Next, G36U U132A: -0.893; G35A C70U: -2.72.
Take A37G G113A: the “polymerase ribozyme fitness (log ratio)” value was -1.4.
Next, A37G G113C: -2.15; A37G U96A: -3.44; G35U G69U C79U: -3.35.
For A37U G39U C72U U125G the value was -3.21; for G35U G44A U67C A105G U112A, -6.79; for G36A C62U C72U, -0.886.
Take A37G C40U: the “polymerase ribozyme fitness (log ratio)” value is -1.48.
For G36A G44U C70U A111C the value was -2.48; for A37U G52C G120C, 0.23.
In the case of C34U A37C G60C C124A, the “polymerase ribozyme fitness (log ratio)” value was -3.79.
Next, A37G C40U G51U C82G: -3.82.
Next, C34U G44U: -4.41.
Next, G35C C49G U78A: -5.52.
For G36A C72U C85G C89U C94U, the “polymerase ribozyme fitness (log ratio)” value is -2.78.
For C34U U54A G61A the value was -4.4.
For C34G U78G, the “polymerase ribozyme fitness (log ratio)” value is -6.71.
Next, G35U C73U U112C: -2.9.
For G36U A50C A84U the value was -1.94.
Next, C34U G39C A50G: -5.57.
As for G36A C49G G93A A95G, the “polymerase ribozyme fitness (log ratio)” value was -3.09.
Next, A37U C86U A105G A121C U132C: -1.31; G36C C40A: -1.42; A37U G58A A100C C114U U133G: -4.99.
For A37G G42C the value was -1.89; for C34G G63U C72U G110U, -8.01; for G36A U106A G117A, -1.88.
Next, A37G C72U C88G C104U G113A: -4.89; G36A C94A: -2.77; G35U A46G G69U C98A: -0.783.
Regarding A37G G57A U106C G120C U129A, the “polymerase ribozyme fitness (log ratio)” value is -3.11.
For G36C C86U the value was -1.65.
As for G36C C86A, the “polymerase ribozyme fitness (log ratio)” value was -1.45.
As for C34U G122U, the “polymerase ribozyme fitness (log ratio)” value is -3.58.
Next, G36U C86A: -1.1; C34U G45C G69U C115G: -3.26; A37U C115U: -0.707.
For A37U C115A the value was -0.816.
A37C A118U: the “polymerase ribozyme fitness (log ratio)” value was 0.469.
Next, G36A C40A C53G U59C C124G: -2.06; G36A U81A U125A: -2.6.
Next, G36U C72G C102U: -3.82.
Next, A37C G61A C73U: -0.816; G35U G61U: -5.28; C34G G120A: -5.16.
Regarding C34U A95C, the “polymerase ribozyme fitness (log ratio)” value was -5.
On to G36A G44U C72A C88A U106G G113C, for which the “polymerase ribozyme fitness (log ratio)” value was -5.9.
Next, G36A G42C C76G: -2.73.
